B1: EMCV 4 (structured_RNA)
RNA: AGCGGCAGUGUCAUCAAUGGCUCAAACCCUACUGCCGAA
B2: EMCV 3 G7C (structured_RNA)
RNA: GGGUUUUUCAGACUCAACGAGCGGCAGUGUCAUCAAUGGCUCAAACCCUACUGCCGAA
B3: EMCV 3 G7C+C37G (structured_RNA)
RNA: GGGUUUUUCAGACUCAACGAGCGGCAGUGUCAUCAAUGGCUCAAACCGUACUGCCGAA
B4: EMCV 3 C37G (structured_RNA)
RNA: GGGUUUUUCAGACUCAAGGAGCGGCAGUGUCAUCAAUGGCUCAAACCGUACUGCCGAA

What was measured:
EMCV 2A wild type [1] = target: T1, EMCV 2A wild type (Encephalomyocarditis virus (EMCV), UniProt P12296 902-1044); test: MST; labelled 2A; MST: 50 mM Tris-HCl pH 7.8, 150 mM NaCl, 10 mM MgCl2, 2 mM DTT, 0.05% Tween 20, 25 C; EMSA: 10 mM Tris-HCl pH 7.4, ~140 mM salt, 2 mM Mg acetate, 1 mM DTT, 5% glycerol, 100 ug/mL tRNA, 37 C; ITC: 50 mM Tris-HCl pH 7.4, 400 mM NaCl, 25 C; tweezers: 20 mM HEPES pH 7.6, 300 mM KCl, 5 mM MgCl2, 5 mM DTT, 0.05% Tween; details: protein: recombinant; tags: C-terminal GlySerLysHis6; label: 5' fluorophore (Dylight 650 in MST, A647/Cy5 in EMSA); unlabelled when 2A is labelled; stem-loop
T1 sequence: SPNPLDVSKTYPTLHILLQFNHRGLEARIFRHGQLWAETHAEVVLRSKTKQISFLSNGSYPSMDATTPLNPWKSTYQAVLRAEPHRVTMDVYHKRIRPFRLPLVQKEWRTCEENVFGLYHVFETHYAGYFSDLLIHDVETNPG

EMCV 2A wild type [2] = target: T1, EMCV 2A wild type; test: EMSA; MST: 50 mM Tris-HCl pH 7.8, 150 mM NaCl, 10 mM MgCl2, 2 mM DTT, 0.05% Tween 20, 25 C; EMSA: 10 mM Tris-HCl pH 7.4, ~140 mM salt, 2 mM Mg acetate, 1 mM DTT, 5% glycerol, 100 ug/mL tRNA, 37 C; ITC: 50 mM Tris-HCl pH 7.4, 400 mM NaCl, 25 C; tweezers: 20 mM HEPES pH 7.6, 300 mM KCl, 5 mM MgCl2, 5 mM DTT, 0.05% Tween; details: protein: recombinant; tags: C-terminal GlySerLysHis6; label: 5' Cy5
EMCV 2A wild type [3] = target: T1, EMCV 2A wild type; test: EMSA; binding restored; MST: 50 mM Tris-HCl pH 7.8, 150 mM NaCl, 10 mM MgCl2, 2 mM DTT, 0.05% Tween 20, 25 C; EMSA: 10 mM Tris-HCl pH 7.4, ~140 mM salt, 2 mM Mg acetate, 1 mM DTT, 5% glycerol, 100 ug/mL tRNA, 37 C; ITC: 50 mM Tris-HCl pH 7.4, 400 mM NaCl, 25 C; tweezers: 20 mM HEPES pH 7.6, 300 mM KCl, 5 mM MgCl2, 5 mM DTT, 0.05% Tween; details: protein: recombinant; tags: C-terminal GlySerLysHis6; label: 5' Cy5; pseudoknot-like

Binder | binding result (EMCV 2A wild type [2]) | further results
B1 | – | binding result (EMCV 2A wild type [1]): no binding
B2 | no binding | –
B3 | – | binding result (EMCV 2A wild type [3]): binds
B4 | no binding | –
